# Reference: paper PMC10798858
# Target: Laa1-myc (budding yeast (S. cerevisiae)) (UniProt P39526)
# Test: co-IP
# UniProt P39526, sequence (P39526 whole entry, the tested form may be a part): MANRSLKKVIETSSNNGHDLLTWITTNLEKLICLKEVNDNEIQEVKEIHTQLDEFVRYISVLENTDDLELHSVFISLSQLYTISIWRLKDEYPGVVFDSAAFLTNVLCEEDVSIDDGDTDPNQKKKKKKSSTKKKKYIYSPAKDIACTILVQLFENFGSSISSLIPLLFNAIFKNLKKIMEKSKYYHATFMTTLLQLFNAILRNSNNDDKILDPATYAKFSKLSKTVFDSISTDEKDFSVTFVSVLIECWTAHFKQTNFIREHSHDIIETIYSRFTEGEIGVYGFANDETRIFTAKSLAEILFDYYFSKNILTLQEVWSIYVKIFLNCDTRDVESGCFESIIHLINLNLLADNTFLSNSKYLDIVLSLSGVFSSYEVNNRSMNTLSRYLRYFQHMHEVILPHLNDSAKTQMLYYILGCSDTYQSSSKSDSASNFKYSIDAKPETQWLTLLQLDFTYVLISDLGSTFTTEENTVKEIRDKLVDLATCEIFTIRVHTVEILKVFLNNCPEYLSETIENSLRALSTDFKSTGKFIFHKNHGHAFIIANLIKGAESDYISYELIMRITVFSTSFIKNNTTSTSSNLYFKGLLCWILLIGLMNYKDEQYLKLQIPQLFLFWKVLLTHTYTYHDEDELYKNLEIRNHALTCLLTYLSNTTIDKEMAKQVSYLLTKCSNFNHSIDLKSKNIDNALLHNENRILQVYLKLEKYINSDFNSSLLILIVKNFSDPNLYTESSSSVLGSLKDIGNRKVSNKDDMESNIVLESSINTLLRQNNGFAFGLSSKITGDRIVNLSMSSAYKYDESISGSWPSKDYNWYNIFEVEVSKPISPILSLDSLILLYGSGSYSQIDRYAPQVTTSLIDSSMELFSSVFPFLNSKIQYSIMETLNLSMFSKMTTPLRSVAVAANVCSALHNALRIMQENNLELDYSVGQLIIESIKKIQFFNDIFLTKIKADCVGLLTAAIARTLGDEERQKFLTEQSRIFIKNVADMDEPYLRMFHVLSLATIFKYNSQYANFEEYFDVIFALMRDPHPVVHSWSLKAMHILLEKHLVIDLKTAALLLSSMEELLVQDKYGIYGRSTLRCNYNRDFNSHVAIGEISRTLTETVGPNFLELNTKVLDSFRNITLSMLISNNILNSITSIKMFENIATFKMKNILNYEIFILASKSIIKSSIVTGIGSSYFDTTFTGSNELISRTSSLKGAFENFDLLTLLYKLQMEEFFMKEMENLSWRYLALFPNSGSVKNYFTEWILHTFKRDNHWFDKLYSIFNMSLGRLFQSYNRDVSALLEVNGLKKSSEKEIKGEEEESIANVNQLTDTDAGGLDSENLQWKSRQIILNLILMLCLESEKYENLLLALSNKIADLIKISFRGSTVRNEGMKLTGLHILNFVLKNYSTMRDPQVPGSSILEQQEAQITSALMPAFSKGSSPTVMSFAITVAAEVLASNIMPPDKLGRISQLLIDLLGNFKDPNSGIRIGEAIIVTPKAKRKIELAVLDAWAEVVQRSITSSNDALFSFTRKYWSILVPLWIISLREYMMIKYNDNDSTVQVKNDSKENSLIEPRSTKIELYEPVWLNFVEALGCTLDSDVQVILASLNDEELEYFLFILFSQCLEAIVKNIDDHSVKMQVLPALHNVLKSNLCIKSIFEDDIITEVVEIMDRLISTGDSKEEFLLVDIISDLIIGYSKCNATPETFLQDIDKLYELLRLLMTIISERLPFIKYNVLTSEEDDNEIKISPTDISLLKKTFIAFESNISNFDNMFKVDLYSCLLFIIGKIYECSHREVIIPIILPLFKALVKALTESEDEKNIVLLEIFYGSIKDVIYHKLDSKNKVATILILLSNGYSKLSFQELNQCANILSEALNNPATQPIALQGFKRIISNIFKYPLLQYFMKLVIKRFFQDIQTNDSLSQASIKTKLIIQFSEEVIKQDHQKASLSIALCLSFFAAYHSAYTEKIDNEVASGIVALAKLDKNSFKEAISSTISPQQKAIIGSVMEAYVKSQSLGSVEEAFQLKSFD
row,Substance,"interaction with Laa1, percent of wild type (% of wild-type levels)"
1,Lft1-ΔHR3 tagged with 6-HIS-TEV-3FLAG (HTF) (from UniProt Q03703 1-340) (natural protein),60
2,Lft1-ΔHR1 tagged with 6-HIS-TEV-3FLAG (HTF) (from UniProt Q03703 1-340) (natural protein),60
